This data set concerns the molecule itself. Briefly: SEC; Superdex 75 10/300 GL, 0.5 mg protein loaded, 50 mM potassium phosphate buffer pH 7.0, 150 mM NaCl, 0.5 ml/min; column calibrated with marker proteins; self-association of RacR (octamer).

B1: C-terminally-6His-tagged RacR repressor (natural protein, Escherichia coli K-12 (Rac prophage), UniProt P76062 1-158, looked up)
chain: MLSGKDLGRAIEQAINKKIASGSVKSKAEVARHFKVQPPSIYDWIKKGSISKDKLPELWRFFSDVVGPEHWGLNEYPIPTPTNSDTKSELLDINNLYQAASDEIRAIVAFLLSGNATEPDWVDHDVRAYIAAMEMKVGKYLKALESERKSQNITKTGT
notes: RacR repressor of the cryptic Rac prophage of Escherichia coli K-12; predicted size of the 6His-tagged monomer 18.5 kDa; not shown: 6His, C-terminal, kept
In the case of B1, the “stoichiometry N” value was 8.

The stoichiometry N is the number of molecules, sites or subunits per partner or assembly.

For the origin of these results see paper PMC11014345, “Lethal perturbation of an Escherichia coli regulatory network is triggered by a restriction-modification system's regulator and can be mitigated by excision of the cryptic prophage Rac” (Nucleic Acids Research, 2023).
